This is an account of results in a protein production outcome set (Wang et al. 2014).
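Also: failed if final PepcDB status was selected cloned or expressed and not failed if soluble or beyond.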

The series can be described thus: label from the status in PepcDB records.
In the case of “MSHHNPLVSVVIPSKNRPDLVIATLVSVIDQTYDNIEIIVVDDGSDMPLAPLLKDRFSDRVLCLRNDQSLGGAVARNRGAQSAHGDYITFLDDDDLWLPKKLEMQVDAFSKHGVDIGVVYCGFDFLCKEEIVPRQNKFHNDYDLSIAVLSGCPFGSPTPLIRKHYFDMVGGFDRELPSCQDWDLWIRLSKVCGFYPVKESLALYRVHGDQISTNLRKKIDGRKMVLAKHYDEIKNYPRVLSAHYSRIGSLCVLADEHVEARDFFSKALASNMFDGGSFVHLVLQFLCRPLEKWLIERFSVNTIDGIKVIHLEHHHHHH”, the protein production result is reported as “failed”. “MSVADVALSPIHRGSAFAVGGFGQSTTTHYSVKSVLVFLSVSGSTMPMLILESDSIAEVKLRIQTCNGFRVRRQKLVFSGRELARNASRVKDYGVTGGSVLHLVLKLYDPLLVTVITTCGKVFQFHVDRRRNVGYLKKRISKEGKGFPEVDDQEILFKGEKLDDNRIIDGICKDGNSVIHLLVKKSVEDTVKREEDTATGKDSLLEPLFLTPM”: the protein production entry is given as “failed”. Regarding “MQFLGRSISKSIRPSLNSTARKSWVLSSQQFLSTSSTESSSRTRGGGGGNRAEKSSEEWPRPMEVPYQPKIANSIDLIGYVHQPVQFDSTLDGKFWAGTVISHEPSSDSKSESDSSSNFWIPVLFEGDLAHTANSYLKKNDRVHITGQILGDVIQSGANSDQAHVQLFKSFHGSFSHQVMVRDLHYIEGSKAMPKVLPTLDQNEGVLKHSASVQRGREFGTNLWFDLVDKPNEWCDYREMKQNGSVNPKHPDFKKKDGSQALWLNNAPTEILSELKDVKFDIPKYAKQPKAGEESWKDLVDNMNKWWDNRVDKRTPKSPDFKHKETGVGLWLSDSPSWVLEKLPPPKSKTSDIYGVQEMF”, the protein production entry is “failed”. For the sequence “MKRFLSIAMALCIGLTMSLDANAKRFGGGKSVGAAPTHQTRQAAPTAPGAPAAAATAGAAGAAGAAAKAGGASRWLGPLAGIAAGGLLASMFMGGGFQGMQIFDILIMAVIAFVIFRFIAARRRKQQEQYAPAGHAPMQREAFEPQQPAGGSIFGGSPAPAARPVINAPAWFNEERFIEAARSHFQSLQQHWDANEMDKIAEFVTPQMLQFLKQERADLGDGFQSTYIDNLQVQLEGVDDRADKTIATLTFSGVSKTSRFDQGEVFSESWNMERAQGDNQPWLVAGIRQNG”, the protein production result is on record as “failed”. The result for “MGFPRSIVLIAALLGGAVSGLTACSSFPFWSAGKEEDTDIKDEHADWGPAQFYAEAKHAMMDGSYDKAIKLYEKLEARYPFGDYATQAQIDVAFCYYKNNEPESAIAAVDRFIKLNPTEPHVDYAYYLRGLINYNRGIGFIDRWLPTDSSQRDPGSARDAYNDFETLLNKFPNSVYREDARQRAIALRNNLAMYDIHVADYYMRRRAYVAAIRRSAEVVQKYQRTQAIPHALRIMEDAYRQLDMPQMADDIARVYALNYAEGRLSKDEDYERTVMEEVWDFIGFDK” reads “failed”; that for “MEAVTGYVKRKDLGRAVVQTDLGNPKAWEIRLTILTDEVLSENQKLATQKIDPSCAVDVSIGHGASDSPRGSSLAINEVRCECSSGISESDLETRGLAMIIDFVMRVASLERSVMNKRDLRFARVEKRFPKGKTKLKA”, “failed”. The result for “MTHSQQSMVDTFRASLFDNQDITVADQQIQALPYSTMYLRLNEGQRIFVVLGYIEQEQSKWLSQDNAMLVTHNGRLLKTVKLNNNLLEVTNSGQDPLRNALAIKDGSRWTRDILWSEDNHFRSATLSSTFSFAGLETLNIAGRNVLCNVWQEEVTSTRPEKQWQNTFWVDSATGQVRQSRQMLGAGVIPVEMTFLKPAPLEHHHHHH” reads “not failed”. As for “MGHPPQLPGGRCPMSQTMDFDTLRRAMADNYEQPEGPARNARAEQLLTEAEKLNIPLAVIEALGHQLKVYNYSSEKDKMFVPFARLLRMWDERPEDFDEYEIHSLHWVFKWMSAGMLGQPHIPLASIEKWLGEMEHRYRLAGHSERAVRSAEFSVANHIGDLARAERAYAAWLAADRDSMADCHACELHDQGWWQARKGADADALEVWRPVVEGEYVCAHEPHAILASSLVPLLRLGRLDEARAHHLRGFRLIRPMESMRGAYADHVEFCALSGNEARALELLAERPAYFTDSGEPRSKLDFMAVVALLMDRLVELGLGEQTVPGPAGRVWSARELAAHARAEALALAARFDERNGTAHVSERARERMDRRPLVDRLPLGVRSTRPAPTAPRPPAAPDSAPAPAVERDLRDVLAEARGRSDALRPDAMDAWAAVARAAGDHELDARDRAEIADHEAMSRGPEGAPLFERAAELYAEAGDPGEALAARARGAYVRALTGHSDDALRTINDLHRQVRALFAKDGTGVRQTAAVLVGRARILVHRVHETEGAGTTVAAAEEAVRELLEFAEPHIAQVRLASRAAEARAMLGELAALTGDAMTAAELLAQAAEGFLAAGLPWFAVEYEARLAGIARELGDAVEAERAARSALEHGVEYLEPAGQAQLHLQLAEVLGTTGQFGPAAEHALEAAHWADEAGEGPTFGAWARHQLGGFLLQQGRWAEAAEVLESALPDLTAETHGDGALVQTQWWLGDCHTELGEHREAAERWLRAAEIARHWPEQRDHAMLAHLAAEALGHAGLPAEADRAYTRAGDLWRDLGNVHGLARALRARAWLAAREEDELDPARELMAQAVRECEAALEGATEGEDGARERLVAELGHTHRQFGDLVARSVQDGDRGADFQGAFEEALGHVTRAVAVFAPLGASALDLRTGAELAAGWLEADLHRPAEATARARAVLAAYANRQEADDETARARCAEADRMLELLGTRTGQ”, the entry is “failed”; as for “MVMEKALTLQQMPDFIVSTIPKGQASYLVFGERSIGKKDVIDIVIKQLEKIGFRTGVEQVPSVGETYKNQTLNSIMDKITGKTEVRDKNTIIKEYDEFTRNNKEKIVIAVYGVEKLSMESKNLFLYMCRISRNRNVTLIGTYNADSTDEYDRFINLIASEDYINIIKIEKPTIEDIAFLVKKMGYKLPDDFVKEIARLTNYNIDSMKYALRYYQDLGVINDRKEINTVSFRYIPVPPTTELYYEKMINSLTDLEKNVAYLMVMLSNDIDVDSAAIILNRKRTEVLNIIRKLEDKGLVKFNGQVVGFYSDKIRRSVEKSMKTSDIAYMTSLIESSQLFMRMPPAQRMHILMKANKLDEIRDIIKEKGQSLVDGYNSVDEVIEDLEQLGNVFSEDSDVKKVLCHAYYLKGRFDKAISCYMDIKPDHDLDSMIDLSSIYSNMGKFEEAEKILEDAKNNFTDDYPQTIISYRIAALYYRMGRYKDTIDMLTPLLGKIDAENMSGVKAGILNILGNIDMTSYRYGDALKKYNEALEINRKLSNYAEISRNLNNIALIDVYTGKYDLAISILKELIETTYSTGDLVSRIYAIYNLSEIYYVIGKQEYAEGYIPLMMRILDVVSEKRVSFHIYRFLTMYYVGLLDFKMAKKYAELAIENAIMEDQKIMAIIFHKIINYVLTGEDPNIDTQEIDSTNFTDDYTSTFLIALAYYYRIIENQEMAKHYVDMAEEAAYKMKIPYVIVNASFHKAVILLSIGDLDGFRRHFERMQKPPTTIQFYDDSFEIFRSIYDGNFDAIKSSKYRIIEEDHVNGTLKGLMPVILNAFALYKFSGIPDDLHHLINVTPEPYSRLLALITNYH”, “failed”. On to “AKSEMAFAGKGEISPRAITMWDFSWLERRWPGAGYEDWDQVLDELSERGYNAIRIDAYPHLIAENPMKKWLLKEVWNQQDWGSPDMNEVQVQPNLNLFLSKCKERDIKVGLSSWYRLDVDEVCLKLDTPEKLADCWLTILRSIEEDGLLDTILYVDLCNEWPGDSWAPFFAKTYPNVGWGNWYKEESLRWMKTSLEKMRQVYPDMPFLYSFDHGDVKKYEEVDCSFLDLYEHHIWMAQQNGGEFYKLVGYGYNRFLPDDYKNVVKNAERVYRERPGYWQKLLTDKIELMASVARKNRRPLVTTECWGLVDYKDWPLLKWDWVKDLCELGTITAARTGMWVGVATSNFCGPQFAGMWRDVEWHKRLTSIIRSSPLDESLTKNNEVAAKLLKRL”, for which the protein production entry is “not failed”. Consider “MSLKENKYDDKHFFEQYSQMPRSKEGLKAAGEWHELKKMLPDFNQKTVLDLGCGFGWHCIYAAEHGAKKVLGIDLSERMLTEAKRKTTSPVVCYEQKAIEDIAIEPDAYNVVLSSLALHYIASFDDICKKVYINLKSSGSFIFSVEHPVFTADGRQDWYTDETGNKLHWPVDRYFNESMRTSHFLGEDVQKYHRTVTTYIQTLLKNGFQINSVIEPEPAPELKDLPEMQDEYRRPMMLLISATKQEGHHHHHH”, for which the protein production entry is listed as “not failed”.

In the case of “MILHRYLLRESLPVLLLALLFLTAVYLFGFFYAGARWLEGVPLPKILRWLSYHVPGIWVQVFPIALVTTTVLVFGRLAAEGAHFALLSAGIPLGRAALPLVAVGAVLSGLALYLQEYVVPEANNRVRVAWWDEIHTQGAGLFRLKGMQIPIGQGKSLYFQDFDMAAKEMVGVRITAFQGEVGTFLFAERGTWEDKTLTLKDYRYYQVDFAQVPGLETAPDLLAQVRRVFRVVSQGKTLEVTSDLSRARAIADYADTFSFGQDSLSEAWRKLKDPFLPPLEKWRARLELHSKLALPLANLVLVLLAAAMALRYGKSPGLALGMSVVLALAYYGAFFLGRALAGIGALPPELGAWGANLLFLLLGLRALR”, the protein production result is “failed”. The result for “MDDLTNLAARLRLLEDREEIRELIARYGPLADSGDAEALSELWVEDGEYAVVGFATAKGRAAIAALIDGQTHRALMADGCAHFLGPATVTVEGDTATARCHSVVFRCVSGTFGSHRVSANRWTFRRTPAGWRAVRRENALLDGSAAARALLQFR” reads “not failed”; that for “MDQNTTPAPGLRETKKRETRQLISDHATRLFIERGFEHTTIAEIADAARVAKKTVTNYFPRKEDLALDHQDEFVAALAATVTARGAGETPLTALRHAFLAAVAAQDPVAGFAGQAFTRMIADSPTLTACLRGLHDRREEALTAALAGTTDTPPDDITPRTAAALLGGVHRVLFNRIQELTLAGRATPEIAEVLAREAPRAFDLLTPALAEYGRRP”, “not failed”; that for “MVASAPASAGTKGVIRQVIGPVLDVEFPAGKLPKIYNALRVETKNTAGQDVALTAEVQQLLGDHRVRAVAMSGTDGLVRGMEIADTGAPISVPVGEATLGRIFNVLGEPVDEQGPVNASATAPIHRDAPNLTELETKPKVFETGIKVIDLLAPYRQGGKVGLFGGAGVGKTVLIQELINNIAKEHGGVSVFGGVGERTREGNDLYEEFKESGVINADDLSKSKVALCYGQMNEPPGARMRVGLSALTMAEHFRDVNKQDVLLFVDNIFRFVQAGSEVSALLGRMPSAVGYQPTLGTDVGALQERVASTVEGSITSIQAVYVPADDLTDPAPATTFAHLDATTVLNRALASKGIYPAVDPLDSTSTMLQPAVVGDEHYRTARLVQSTLQRYKELQDIIAILGLDELSEDDRQTVDRARKVEKFLSQPFFVAEIFTGMPGKYVKLEETIAGFNQILAGELDHLPEAAFYLVGSIEEAKAKAEKIAAETK”, “failed”. Regarding “MTNSGIILVASAALFWGLSGGIAGILINDDWNAVLVSFCRGAVGLIFVLMWLVLRPRNSGFTNGKLWLWSIIAGFGVSGNFAFYFFSISESSVAVAATLMYCAPIFVYLISFAIKIERPTLSKCAAILLVMAGVVLLTRVYQIDSSGITPIGVIAGLLSGMSLALFIFGFKYAARQGSPQAVLAIAFSTLTLALGTLIDIEEAGRVVNSADWPLFAILGVLGGGASFILYIIGLRRTLPALASIVATIEPVTAALFGVIILGEVLAYTQVLGMLIILATVTALGVYSSKQ”, the protein production entry is “failed”. Take “QTVAQGKLTLSVPKAVGRFVIHPLMMAFFHRYPQVDVCLRLEDRPLDFIDDGIDLALRITDTPSPGLHGKPLMPIRHVICATEAYLQQHGTPYTPQDLRSHSCISLGETPADARWKFRREGKTETVQTYGRYAANHTAVR”: the protein production result is “failed”.

As for “MAAAAAGPASSQRLFQSFSDALIDGDPQAALEELTKALEQNPDDAQYYCQRAYCHILLGKYRDGIADVKKSLELNPNNCTALLRKGICEYHEKDYASALETFAEGQKLDSTDTNFDTWIKRCQEIQNGSESEVSASQRTQSKIKYDWYQTESHVIITLMIKSVQKNDVRVGFSERELSALVKIPAGEDYSLKLRLLHPIIPEQSTFKVLSTKIEIKMKKPEAVRWEKLEGQGDEPTPKQFTADVKNMYPSSSHYTRNWDKLVGEIKEEEKNEKLEGDAALNKLFQQIYSDGSDEVKRAMNKSFMESGGTVLSTNWSDVGKRKVEINPPDDMEWKQY”, the protein production entry is “failed”.
